The record followed here is patent publication US20200385745.

Changes are numbered by the printed parent chain. Names and notes keep the numbering of the source.

The target in the series is keratin (substrate of the keratinase activity assay).

B1: keratinase derived from Brevibacillus parabrevis (CGMCC No. 10798), parent keratinase (protein)
chain: AQTVPYGIPQIKAPAVHAQGYKGANVKVAVLDTGIHAAHPDLNVAGGASFVPSEPNATQDFQSHGTHVAGTIAALDNTIGVLGVAPSASLYAVKVLDRYGDGQYSWIISGIEWAVANNMDVINMSLGGPSGSTALKNTVDTANNRGVVVVAAAGNSGSSGSSSTVGYPAKYDSTIAVANVNSNNVRNSSSSAGPELDVSAPGTSILSTVPSSGYTSYTGTSMASPHVAGAAALILSKNPNLTNSQVRQRLENTATPLGDSFYYGKGLINVQAASN
Usually Km stands for the substrate concentration at which the rate is half of its maximum. B1: the Michaelis constant (Km) turned out to be 2100 µM.

B2: keratinase mutant T218S (protein)
chain: B1 chain with Y217S
Take B2: the Michaelis constant (Km) was 1500 µM.

B3: keratinase double mutant N181D-T218S (protein)
chain: B1 chain with N181D, T218S
For the protein B3, the Km is 1800 µM.

B4: keratinase mutant S236C (protein)
chain: B1 chain with S236C
Regarding B4, the Michaelis constant (Km) is 2200 µM.

B5: keratinase mutant N181D (protein)
chain: B1 chain with N181D
In the case of B5, the Michaelis constant (Km) turned out to be 1900 µM.
